In assay [1] the target is T1, Human CD98 ECD with C-terminal His-tag (human, UniProt P08195 105-529).
T1 construct: also called huCD98 ECD; recombinant human CD98 extracellular domain
T1 sequence: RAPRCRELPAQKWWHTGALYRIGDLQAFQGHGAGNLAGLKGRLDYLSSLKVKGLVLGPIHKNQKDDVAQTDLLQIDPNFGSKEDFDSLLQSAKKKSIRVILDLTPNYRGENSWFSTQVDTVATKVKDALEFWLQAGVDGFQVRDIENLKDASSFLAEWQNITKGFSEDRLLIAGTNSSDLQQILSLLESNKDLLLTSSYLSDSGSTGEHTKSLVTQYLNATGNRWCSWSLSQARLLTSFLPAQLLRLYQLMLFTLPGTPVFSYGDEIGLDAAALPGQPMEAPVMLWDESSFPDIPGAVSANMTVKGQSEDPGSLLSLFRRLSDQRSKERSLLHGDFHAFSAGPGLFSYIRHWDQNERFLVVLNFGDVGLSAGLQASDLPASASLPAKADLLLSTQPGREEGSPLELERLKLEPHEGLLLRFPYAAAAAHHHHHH
Kind of assay: SPR Biacore, anti-Fc capture of mAb, CD98 ECD analyte. As for the experimental part:
(§1) The binding kinetics of these purified mouse and rat monoclonal anti-CD98 antibodies for purified recombinant CD98 protein (extracellular domain. ECD) were determined by surface plasmon resonance-based measurements made on Biacore T100/T200 instruments (GE Healthcare, Piscataway, N.J.) at 25° C. using an anti-Fc capture assay approach. Binding kinetic measurements were made in the assay buffer HBS-EP+: 10 mM Hepes, pH 7.4, 150 mM NaCl, 3 mM EDTA, 0.05% Tween 20). For example, approximately 8000 RU of anti-Fc (species specific) polyclonal antibody (Thermo Fisher Scientific Inc. Rockford, Ill.) diluted in 10 mM sodium acetate (pH 4.5) was directly immobilized across a CM5 research grade biosensor chip using a standard amine coupling kit according to manufacturer's instructions and procedures at 25 μg/ml. Unreacted moieties on the biosensor surface were blocked with ethanolamine. The test antibody to be captured as a ligand was diluted in running buffer to ˜0.5 μg/mL and injected over anti-Fc surface at a flow rate of 10 μL/min, CD98 binding and dissociation were observed under a continuous flow rate of 80 μL/min. Human and cynomolgus monkey CD98 ECDs, both with a C-terminal His-tag, are used for this study (Table 3). After each cycle the anti-Fc capture surface was regenerated using 10 mM Glycine-HCl, pH 1.5. During the assay, all measurements were referenced against the capture surface alone (i.e., with no captured test antibody) and buffer-only injections (no antigen) were used for double referencing. For kinetic analysis, rate equations derived from the 1:1 Langmuir binding model were fitted simultaneously, globally and with mass transfer term included to multiple referenced antigen binding curves using Biacore T100T200 Evaluation software.

Assay [2] has as its target T2, Cynomolgus monkey CD98 ECD with C-terminal His-tag (cynomolgus monkey, UniProt P08195 105-529 (human entry)).
T2 construct: also called cyCD98 ECD; recombinant cynomolgus monkey CD98 extracellular domain
T2 chain: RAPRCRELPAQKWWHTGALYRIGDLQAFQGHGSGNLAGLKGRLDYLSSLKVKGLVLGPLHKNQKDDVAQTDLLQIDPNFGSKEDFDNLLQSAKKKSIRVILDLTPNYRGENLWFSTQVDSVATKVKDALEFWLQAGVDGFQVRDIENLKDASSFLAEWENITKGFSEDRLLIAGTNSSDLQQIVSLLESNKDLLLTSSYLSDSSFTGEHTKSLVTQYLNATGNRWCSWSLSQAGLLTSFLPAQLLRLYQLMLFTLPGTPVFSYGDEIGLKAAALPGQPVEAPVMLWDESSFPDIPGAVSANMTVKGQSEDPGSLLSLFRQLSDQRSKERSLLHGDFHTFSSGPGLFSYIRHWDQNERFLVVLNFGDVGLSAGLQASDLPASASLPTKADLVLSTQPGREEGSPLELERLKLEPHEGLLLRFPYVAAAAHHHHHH
Described as above. As for the experimental part:
as §1

B1: Anti-CD98 murine hybridoma antibody Ab4 (antibody, V domains shown)
VH: EVKLVESGGGLVQPGGSLRLSCTTSGFTFTDYYMSWVRQPPGKALEWLGFIRNKATIYTTEYSASVKGRFTISRDNSQSILYLQMNTLRAEDSATYYCARASYGNSEGWFAYWGQGTLVTVSA
VL: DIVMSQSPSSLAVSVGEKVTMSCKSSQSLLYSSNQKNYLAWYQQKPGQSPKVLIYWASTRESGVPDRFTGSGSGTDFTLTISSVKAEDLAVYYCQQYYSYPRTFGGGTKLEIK
In the case of B1, in assay [1], the Kd was determined as 0.83 nM, the koff was 3.7e-05 s⁻¹ and the kon is 44000 M⁻¹ s⁻¹. In assay [2], this molecule came in with a Kd of 1.8 nM, a koff of 1.7e-05 s⁻¹ and a kon of 9700 M⁻¹ s⁻¹.

B2: Anti-CD98 murine hybridoma antibody Ab2 (antibody, V domains shown)
VH: EVKLVESGGGLVQPGGSLRLSCATSGFNFTDYYMSWVRQPPGKALEWLGFIRNKANGYTTEYSASVKGRFTISRDDSQSILYLQMNTLRAEDSATYYCARASYGNSEGWFAYWGQGTLVTVSA
VL: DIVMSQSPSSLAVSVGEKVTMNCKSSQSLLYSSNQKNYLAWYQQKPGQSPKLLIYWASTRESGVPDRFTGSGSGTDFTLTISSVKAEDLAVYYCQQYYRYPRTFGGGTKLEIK
In assay [1], B2 had a Kd of 1.1 nM, a koff of 8.1e-05 s⁻¹ and a kon of 73000 M⁻¹ s⁻¹. In addition, in assay [2], binding was characterised by a dissociation constant (Kd) of 37 nM, the koff amounted to 0.00086 s⁻¹ and the kon amounted to 24000 M⁻¹ s⁻¹.

B3: Anti-CD98 murine hybridoma antibody Ab5 (antibody, V domains shown)
VH: EVKLVESGGGLVQPGGSLRLSCATSGFTFTDYYMTWVRQPPGKALEWLGFIRNKANGYTTEYSASVKGRFTISRDNSLSILYLQMNTLRAEDSATYYCARASYVNSEGWFAYWGQGTLVTVSA
VL: DIVMSQSPSSLAVSVGEKVTMSCKSSQSLLYSSNQKNYLAWYQQKLGQSPKLLIYWASTRESGVPDRFTGSGSGTDFTLTISSVKAEDLAVYYCQHYYSYPRTFGGGTKLEIK
In assay [1], B3 returned a dissociation constant (Kd) of 2.2 nM, a koff of 0.00012 s⁻¹ and a kon of 52000 M⁻¹ s⁻¹. In assay [2], the Kd was determined as 11 nM, the koff is 0.00022 s⁻¹ and the kon was determined as 21000 M⁻¹ s⁻¹.

B4: Anti-CD98 rat hybridoma antibody Ab11 (antibody, V domains shown)
VH: EVQLVESGGGLVQPGRSLKLSCAASGFTFSDYAMAWVRQAPKKGLEWVAGIIYDGRGTYYRDSVKGRFTISRDNAKSTLYLQMDSLRSEDTATYYCARQGDGTYYYWGYFDYWGQGVMVTVSS
VL: DIVMTQSPSSLAVSAGETVTINCRSSQSLLSSGNQKNYLAWYQQKPGQSPKLLIYWASTRQSGVPDRFIGSGSGTDFTLTISSVQAEDLAIYYCQQYYDTPYTFGAGTKLELK
Take B4: in assay [1], the Kd is 18 nM, the koff was 0.0012 s⁻¹ and the kon amounted to 65000 M⁻¹ s⁻¹. Moreover, in assay [2], the Kd came out at 72 nM, the koff is 0.0017 s⁻¹ and the kon came out at 24000 M⁻¹ s⁻¹.

B5: Anti-CD98 rat hybridoma antibody Ab15 (antibody, V domains shown)
VH: EVQLVESGGGLVQPGRSLKLSCAASGFTFSDYTMAWVRQAPKKGLEWVATIIYDGRGTYYRDSVKGRFTISRDNAKSTLYLQMDSLRSEDTATYYCARQSDGTYYYWGYFDYWGQGVMVTVSS
VL: DIVMTQSPSSLAVSAGETVTINCKSSQSLLFSGNQKNYLAWYQQKPGQSPKLLIYWASTRQSGVPDRFIGSGSGTDFTLTIRSVQAEDLAIYYCQQYYDSPYTFGAGTKLELK
Regarding B5, in assay [1], the affinity, expressed as Kd, was 0.68 nM; the koff is 5.3e-05 s⁻¹; the kon was found to be 77000 M⁻¹ s⁻¹. Further, in assay [2], binding was put at a Kd of 3.3 nM, the koff was determined as 9.6e-05 s⁻¹ and the kon was 29000 M⁻¹ s⁻¹.

B6: Anti-CD98 rat hybridoma antibody Ab10 (antibody, V domains shown)
VH: EVQLVESGGGLVQPGRSLKLSCAASGFTFSDYAMAWVRQAPKKSLEWVATIIYDGRGTYCRDSVKGRFTISRDNAKSTLYLQMDSLRSEDTATYYCARQGDGTYHYWGYFDYWGQGVMVTVSS
VL: DIVMTQSPSSLAVSAGETVTINCKSSQSLLSSGNQKNYLAWYQQKPGQSPKLLIYWASTRQSGVPDRFIGSGSGTDFTLTISSVQAEDLAIYYCQQYYDTPYTFGAGTKVDLK
In assay [1], B6 showed a Kd of 2 nM, a koff of 0.00024 s⁻¹ and a kon of 130000 M⁻¹ s⁻¹. In assay [2], this molecule registered a dissociation constant (Kd) of 7.8 nM, a koff of 0.00049 s⁻¹ and a kon of 62000 M⁻¹ s⁻¹.

B7: Anti-CD98 murine hybridoma antibody Ab3 (antibody, V domains shown)
VH: EVKLVESGGGLVQPGNSLRLSCATSGFTFIDYYMSWVRQSPGKALEWLGFIRNKANGYTTEYSASVKGRFTISRDNSQSILYLQMDTLRAEDSATYYCTRDRPAWFVYWGQGTLVTVSA
VL: DIVMSQSPSSLAVSVGEKVTMSCKSSQSLLYSSNQKNYLAWYQQKPGQSPKLLIYWASTRESGVPDRFTGSGSGTDFTLTFSSVRAEDLAVYYCQQYYSYPYTFGGGTKLEIK
As to B7, in assay [1], binding was put at a Kd of 15 nM, the koff is 0.003 s⁻¹ and the kon amounted to 200000 M⁻¹ s⁻¹. In assay [2], this molecule returned a Kd of 30 nM, a koff of 0.0012 s⁻¹ and a kon of 38000 M⁻¹ s⁻¹.

B8: Anti-CD98 rat hybridoma antibody Ab7 (antibody, V domains shown)
VH: QVQLKESGPGLVQPSQTLSLTCTVSGFSLSTYGVIWVRQPPGKGLEWMGVIWANGNTNYNSTLKSRLSISRDTSKSQVYLKMNSLQTEDTATYYCARHYYDGTYYYGYFDYWGQGVMVTVSS
VL: DIVMTQTPSSQAVSAGEKVTMNCKSSQSLLYSENKKNYLAWYQQKPGQSPKLLIYWASTRESGVPDRFIGSGSGTDFTLTISSVQAEDLAVYYCQQYYYFPYTFGPGTKLELK
For B8, in assay [1], the Kd was 0.76 nM, the koff was determined as 0.00015 s⁻¹ and the kon turned out to be 200000 M⁻¹ s⁻¹. Moreover, in assay [2], the Kd came to 3 nM, the koff worked out at 0.00027 s⁻¹ and the kon worked out at 91000 M⁻¹ s⁻¹.

B9: Anti-CD98 rat hybridoma antibody Ab9 (antibody, V domains shown)
VH: QVQLKESGPGLVQPSQTLSLTCAVSGFSLSNYGVIWVRQPPGKGLEWMAVIWTNGNTNYNSTLKSRLSISRDTSKSQVYLKMNSLQTEDTATYYCARHYYDGTYYYGYFDYWGQGVMVTVSS
VL: DIVMTQTPSSQAVSAGEKVTMSCKSSQSLLYTENKKNYLAWYQQKPGQSPKLLIYWASTRESGVPDRFMGSGSGTDFTLTISSVQAEDLAVYYCQQYYYFPYMFGAGTKLELK
For the molecule B9, in assay [1], the affinity, expressed as Kd, was 1.2 nM; the koff was found to be 0.00015 s⁻¹; the kon is 130000 M⁻¹ s⁻¹. For the same molecule, in assay [2], the Kd came to 9.9 nM, the koff was determined as 0.00051 s⁻¹ and the kon amounted to 51000 M⁻¹ s⁻¹.

B10: Anti-CD98 rat hybridoma antibody Ab6 (antibody, V domains shown)
VH: QVQLKESGPGLAQPSQTLSLTCTVSGFSLSTYGVIWLRQPPGKGLEWMGVIWTNGNTNYNSTLKSRLSISRDTSESQVYLQMNSLQTEDTATYYCARHYYDGAYYYGYFDYWGQGVMVTVSS
VL: DIVMTQTPSSQAVSAGEKVTMSCKSSQSLLYSENKKNYLAWYQQKPGQSPKLLIYWASTRESGVPDRFIGSGSGTDFTLTISSVQAEDLAVYYCQQYYYFPYTFGAGTKLELK
As to B10, in assay [1], the Kd was determined as 1.1 nM, the koff amounted to 0.00016 s⁻¹ and the kon is 150000 M⁻¹ s⁻¹. In assay [2], the Kd turned out to be 5.9 nM, the koff is 0.00037 s⁻¹ and the kon turned out to be 62000 M⁻¹ s⁻¹.

The record behind these values is US20200147235A1 (AbbVie / Abbott, published 2020).
